Test results published in patent publication US20160002337A1 (ALBERT EINSTEIN COLLEGE OF MEDICINE, published 2016).
Blank lines part the entries; values can stand above or below the binder they belong to.

Experiments:
B7x-Ig [1] = biological target: T1, B7x-Ig (human, UniProt Q7Z7D3 25-259; P01857 99-330 = IgG part, limits assumed); assay: FACS on 3T3 or CT26 transfectants, PE anti-human IgG Fc
T1 construct: extracellular domain;domain: Fc; Made in Drosophila S2 cells; Used as a control fusion protein; also called B7x-Ig fusion protein
T1 sequence (Q7Z7D3 other isoform, or with tags, fused parts or gaps limits assumed): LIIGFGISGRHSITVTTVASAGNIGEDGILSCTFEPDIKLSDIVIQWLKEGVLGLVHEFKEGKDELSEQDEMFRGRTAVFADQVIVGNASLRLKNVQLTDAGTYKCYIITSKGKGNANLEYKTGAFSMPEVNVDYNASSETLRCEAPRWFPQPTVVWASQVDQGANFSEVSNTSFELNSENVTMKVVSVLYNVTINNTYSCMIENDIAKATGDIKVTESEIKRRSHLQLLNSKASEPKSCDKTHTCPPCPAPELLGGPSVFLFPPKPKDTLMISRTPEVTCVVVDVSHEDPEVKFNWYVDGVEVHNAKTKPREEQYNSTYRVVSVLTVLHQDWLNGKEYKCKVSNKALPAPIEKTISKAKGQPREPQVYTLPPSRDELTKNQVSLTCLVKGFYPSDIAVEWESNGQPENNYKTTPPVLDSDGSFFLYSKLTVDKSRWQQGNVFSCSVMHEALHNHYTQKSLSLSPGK
Procedure: (§1) Antibodies and flow cytometry. Cells were incubated with Fc blocking reagents and then stained with combinations of the following anti-human antibodies: CD152-PE, CD28-PE, B7-1-PE, B7-2-PE, PD-1-PE, PD-L1-PE, PD-L2-PE, ICOS-PE, ICOSL-PE, B7H4-PE, CD14-FITC, CD19-FITC, CD8a-Percp-Cy5.5, CD4-APC, CD83-APC, streptavidin and isotype controls (eBioscience). Biotinylated anti-hB7-H3 was purchased from R&D. For receptor binding, cells were incubated with HHLA2-Ig, B7x-Ig, or control Ig for 45 min on ice and then stained with PE-anti-human IgG Fc (Jackson Immunoresearch). Samples were acquired on a FACSCalibur, LSRII or LSRII yellow (BD Biosciences), and analyzed with FlowJo (Treestar).

B7x-Ig [2] = biological target: T1, B7x-Ig; assay: FACS on 3T3 transfectants, PE anti-human IgG Fc
Procedure: as §1

[3] = biological target: T2, Fc portion of human IgG1 (Ig control) (human, UniProt P01857-1 99-330 = IgG part, limits assumed); assay: FACS on 3T3 transfectants, PE anti-human IgG Fc
T2 construct: domain: Fc; Control protein made in Drosophila S2 cells; also called control Ig; human IgG1 Fc tag
Procedure: as §1

- binding result (B7x-Ig [1]): no binding
B1: human B7-2 on transfected cells (ligand, UniProt P42081 24-329, looked up)
chain: APLKIQAYFNETADLPCQFANSQNQSLSELVVFWQDQENLVLNEVYLGKEKFDSVHSKYMGRTSFDSDSWTLRLHNLQIKDKGLYQCIIHHKKPTGMIRIHQMNSELSVLANFSQPEIVPISNITENVYINLTCSSIHGYPEPKKMSVLLRTKNSTIEYDGVMQKSQDNVTELYDVSISLSVSFPDVTSNMTIFCILETDKTRLLSSPFSIELEDPQPPPDHIPWITAVLPTVIICVMVFCLILWKWKKKKRPRNSYKCGTNTMEREESEQTKKREKIHIPERSDEAQRVFKSSKTSSCDKSDTCF
notes: whole, on cells; also called CD86

- binding result (B7x-Ig [1]): no binding
B2: human B7h on transfected cells (ligand, UniProt O75144 19-302, looked up)
chain: DTQEKEVRAMVGSDVELSCACPEGSRFDLNDVYVYWQTSESKTVVTYHIPQNSSLENVDSRYRNRALMSPAGMLRGDFSLRLFNVTPQDEQKFHCLVLSQSLGFQEVLSVEVTLHVAANFSVPVVSAPHSPSQDELTFTCTSINGYPRPNVYWINKTDNSLLDQALQNDTVFLNMRGLYDVVSVLRIARTPSVNIGCCIENVLLQQNLTVGSQTGNDIGERDKITENPVSTGEKNAATWSILAVLCLLVVVAVAIGWVCRDRCLQHSYAGAWAVSPETELTGHV
notes: whole, on cells; also called ICOS-L

- binding result (B7x-Ig [1]): no binding
B3: human B7-1 on transfected cells (ligand, UniProt P33681 35-288, looked up)
chain: VIHVTKEVKEVATLSCGHNVSVEELAQTRIYWQKEKKMVLTMMSGDMNIWPEYKNRTIFDITNNLSIVILALRPSDEGTYECVVLKYEKDAFKREHLAEVTLSVKADFPTPSISDFEIPTSNIRRIICSTSGGFPEPHLSWLENGEELNAINTTVSQDPETELYAVSSKLDFNMTTNHSFMCLIKYGHLRVNQTFNWNTTKQEHFPDNLLPSWAITLISVNGIFVICCLTYCFAPRCRERRRNERLRRESVRPV
notes: whole, on cells; also called CD80

- binding result (B7x-Ig [1]): no binding
B4: human PD-L2 on transfected cells (ligand, UniProt Q9BQ51 20-273, looked up)
chain: LFTVTVPKELYIIEHGSNVTLECNFDTGSHVNLGAITASLQKVENDTSPHRERATLLEEQLPLGKASFHIPQVQVRDEGQYQCIIIYGVAWDYKYLTLKVKASYRKINTHILKVPETDEVELTCQATGYPLAEVSWPNVSVPANTSHSRTPEGLYQVTSVLRLKPPPGRNFSCVFWNTHVRELTLASIDLQSQMEPRTHPTWLLHIFIPFCIIAFIFIATVIALRKQLCQKLYSSKDTTKRPVTTTKREVNSAI
notes: whole, on cells; also called B7-DC

- binding result (B7x-Ig [2]): no binding
- binding result [3]: no binding
B5: human ICOS on transfected cells (receptor, UniProt Q9Y6W8 21-199, looked up)
chain: EINGSANYEMFIFHNGGVQILCKYPDIVQQFKMQLLKGGQILCDLTKTKGSGNTVSIKSLKFCHSQLSNNSVSFFLYNLDHSHANYYFCNLSIFDPPPFKVTLTGGYLHIYESQLCCQLKFWLPIGCAAFVVVCILGCILICWLTKKKYSSSVHDPNGEYMFMRAVNTAKKSRLTDVTL
notes: whole, on cells
